How the values were obtained:
[1] = target: T1, ORF0657n-H/y (SEQ ID NO: 3) (S. aureus, UniProt A6QG30 42-609); test: Western blot (dot blot confirmed by Western)
T1 construct: also called Yeast expressed ORF0657n-H/y antigen

[2] = target: T2, ORF0657t (ORF0657n fragment from amino acid 42 to amino acid 486 of SEQ ID NO: 1) (S. aureus, UniProt A5IS15 42-486); test: SPR Biacore 3000, IgG captured as ligand, ORF0657t as analyte
T2 construct: also called ORFO657t

[3] = target: T3, ORF0657t CNBr fragment [001-323] (Band 35 kDa) (S. aureus, UniProt A5IS15 42-363); test: Western blot of CNBr cleavage products of ORF0657t with 2H2 mAb
T3 construct: also called 35 kDa band
T3 sequence: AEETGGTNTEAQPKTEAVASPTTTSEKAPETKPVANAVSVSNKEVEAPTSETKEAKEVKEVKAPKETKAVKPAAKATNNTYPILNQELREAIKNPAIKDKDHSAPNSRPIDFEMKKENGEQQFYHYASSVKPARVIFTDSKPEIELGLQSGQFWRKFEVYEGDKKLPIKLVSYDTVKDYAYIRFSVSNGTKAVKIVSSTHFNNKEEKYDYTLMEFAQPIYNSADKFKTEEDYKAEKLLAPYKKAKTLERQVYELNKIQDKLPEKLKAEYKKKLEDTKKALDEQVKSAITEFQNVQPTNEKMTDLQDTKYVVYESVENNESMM

[4] = target: T4, ORF0657t CNBr fragment [114-214] (Band 10 kDa) (S. aureus, UniProt A5IS15 154-254); test: Western blot of CNBr cleavage products of ORF0657t with 2H2 mAb (Band 10 kDa)
T4 construct: also called 10 kDa band
T4 sequence: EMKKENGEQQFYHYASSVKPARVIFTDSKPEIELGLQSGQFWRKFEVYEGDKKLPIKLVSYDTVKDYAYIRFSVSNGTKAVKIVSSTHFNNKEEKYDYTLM

[5] = target: T5, ORF0657t CNBr fragment [215-302] (Band 10 kDa) (S. aureus, UniProt A5IS15 255-342); test: as above
T5 construct: also called 10 kDa band
T5 sequence: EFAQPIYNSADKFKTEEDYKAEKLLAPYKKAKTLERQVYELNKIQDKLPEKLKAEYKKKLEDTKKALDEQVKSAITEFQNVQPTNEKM

[6] = target: T6, ORF0657t CNBr fragment [357-446] (Band 10 kDa) (S. aureus, UniProt A5IS15 397-486); test: as above
T6 construct: also called 10 kDa band
T6 sequence (A5IS15 397-486): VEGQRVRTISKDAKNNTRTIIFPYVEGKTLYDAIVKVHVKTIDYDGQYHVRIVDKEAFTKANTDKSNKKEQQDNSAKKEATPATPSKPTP

[7] = target: T7, ORF0657t CNBr fragment [215-356] (Band 15 kDa) (S. aureus, UniProt A5IS15 255-396); test: Western blot of CNBr cleavage products of ORF0657t with 2H2 mAb (Band 15 kDa)
T7 construct: also called 15 kDa band

[8] = target: T8, ORF0657t CNBr fragment [303-446] (Band 15 kDa) (S. aureus, UniProt A5IS15 343-486); test: as above
T8 construct: also called 15 kDa band
T8 sequence (A5IS15 343-486): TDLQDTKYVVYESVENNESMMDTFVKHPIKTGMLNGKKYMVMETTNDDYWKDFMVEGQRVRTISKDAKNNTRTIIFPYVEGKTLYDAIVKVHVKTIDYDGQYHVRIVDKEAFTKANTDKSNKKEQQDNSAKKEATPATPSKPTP

[9] = target: T9, ORF0657t CNBr fragment [001-214] (Band 25 kDa) (S. aureus, UniProt A5IS15 42-254); test: Western blot of CNBr cleavage products of ORF0657t with 2H2 mAb (Band 25 kDa)
T9 construct: also called 25 kDa band
T9 sequence: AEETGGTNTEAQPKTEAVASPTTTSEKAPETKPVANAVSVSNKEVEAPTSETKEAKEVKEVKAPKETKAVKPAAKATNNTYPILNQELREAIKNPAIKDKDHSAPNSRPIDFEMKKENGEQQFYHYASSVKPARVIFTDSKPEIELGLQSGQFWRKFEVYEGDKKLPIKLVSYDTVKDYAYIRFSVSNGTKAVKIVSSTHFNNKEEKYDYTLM

[10] = target: T10, ORF0657t CNBr fragment [116-302] (Band 25 kDa) (S. aureus, UniProt A5IS15 156-342); test: as above
T10 construct: also called 25 kDa band
T10 sequence: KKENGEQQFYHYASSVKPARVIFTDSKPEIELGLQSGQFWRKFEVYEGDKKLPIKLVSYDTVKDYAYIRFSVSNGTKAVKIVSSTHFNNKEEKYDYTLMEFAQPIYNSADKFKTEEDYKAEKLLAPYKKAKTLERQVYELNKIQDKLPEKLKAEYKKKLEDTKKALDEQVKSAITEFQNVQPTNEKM

[11] = target: T2, ORF0657t (ORF0657n fragment from amino …); test: SPR Biacore 3000, ORF0657t bound to the surface, antibody fragment as analyte

T1 sequence (A6QG30 42-609, tags left off): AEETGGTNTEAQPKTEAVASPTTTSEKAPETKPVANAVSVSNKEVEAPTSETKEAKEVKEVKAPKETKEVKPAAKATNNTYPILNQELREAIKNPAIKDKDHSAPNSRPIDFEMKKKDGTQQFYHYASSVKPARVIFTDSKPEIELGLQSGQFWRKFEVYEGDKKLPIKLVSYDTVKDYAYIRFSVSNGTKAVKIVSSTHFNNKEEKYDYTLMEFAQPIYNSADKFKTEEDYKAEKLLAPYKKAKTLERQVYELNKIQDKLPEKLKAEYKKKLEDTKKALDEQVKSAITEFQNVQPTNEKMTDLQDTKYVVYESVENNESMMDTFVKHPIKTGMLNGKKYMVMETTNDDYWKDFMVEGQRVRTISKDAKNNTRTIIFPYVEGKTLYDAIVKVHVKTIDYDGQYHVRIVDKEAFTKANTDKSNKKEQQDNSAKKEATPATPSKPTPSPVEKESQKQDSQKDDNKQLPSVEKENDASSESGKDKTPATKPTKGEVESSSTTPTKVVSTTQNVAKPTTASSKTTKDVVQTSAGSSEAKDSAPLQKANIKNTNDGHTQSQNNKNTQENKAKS

B1: mAb 2H2.B8 (antibody, V domains shown)
VH: DVHLVESGPGLVAPSQNLSITCTVSGFSLSRYGVHWVRQPPGKGLEWLGLIWAGGVTIYNSTLMSRLSISKDSSKSQVFLKMNSLQIDDTAIYYCAREASRDHYFDYWGQGTTLTVSS
VL: DIVMTQSPAIMSASPGEKITMTCSASSSVSYIYWYQQKSGTSPKRWIYDTSKLASGVPFRFSGGGSGTSFSLTISSMEAEDAATYYCQQWSSNPLTFGAGTKLEIKR
notes: also called 2H2.B8 (IgG1)
binding result [1]: binds

B2: 2H2 IgG chimera (antibody, V domains shown)
VH: B1 VH
VL: B1 VL
notes: also called chimeric antibody; Mouse 2H2 Variable and Human IgG1 / Human Kappa Constant Region
Kd [2]: 25 nM | koff [2]: 0.00273 s⁻¹ | kon [2]: 110000 M⁻¹ s⁻¹

B3: mAb 2H2.BE11 (antibody, V domains shown)
VH: B1 VH
VL: B1 VL
notes: also called 2H2.BE11 (IgG2b); 2H2 mAb
Kd [2]: 33 nM | koff [2]: 0.00201 s⁻¹ | kon [2]: 61000 M⁻¹ s⁻¹ | binding result [3]: no binding | binding result [4]: no binding | binding result [5]: no binding | binding result [6]: no binding | binding result [7]: no binding | binding result [8]: no binding | binding result [9]: no binding | binding result [10]: no binding

B4: 2H2 scAb (scFv)
scFv: DIVMTQSPAIMSASPGEKITMTCSASSSVSYIYWYQQKSGTSPKRWIYDTSKLASGVPFRFSGGGSGTSFSLTISSMEAEDAATYYCQQWSSNPLTFGAGTKLEIKRGGGGSGGGGSGGGGSGGGGSDVHLVESGPGLVAPSQNLSITCTVSGFSLSRYGVHWVRQPPGKGLEWLGLIWAGGVTIYNSTLMSRLSISKDSSKSQVFLKMNSLQIDDTAIYYCAREASRDHYFDYWGQGTTLTVSSRTVAAPSVFIFPPSDEQLKSGTASVVCLLNNFYPREAKVQWKVDNALQSGNSQESVTEQDSKDSTYSLSSTLTLSKADYEKHKVYACEVTHQGLSSPVTKSFNRGEC
notes: domain: human kappa light chain constant domain; also called 2H2 clone; scFv with a Human Kappa chain tag
Kd [11]: 39 nM | koff [11]: 0.00191 s⁻¹ | kon [11]: 49100 M⁻¹ s⁻¹

From patent publication US20110091480A1 (published 2011)
